As usually defined, the Kd is the free concentration of one partner at which half of the binding sites on the other are occupied at equilibrium, for simple one-to-one binding.

For 19 sequences, Kd results are on record in the Immune Epitope Database (IEDB).

Among the targets are HLA-A*11:01; HLA-A*33:01; HLA-A*03:01; HLA-A*31:01; HLA-A*68:01.
Assay in all cases: IEDB peptide-MHC binding, purified MHC/competitive/radioactivity; filed as Kd, often an IC50 or EC50 that approximates it; ≥ and ≤ were set here for values at or beyond the usual limits of such assays
Setting [1] is: source organism: Mammarenavirus whitewaterense.
Where [2] appears, read: source organism: Vaccinia virus Copenhagen.
Where [3] appears, read: source organism: SARS coronavirus Tor2.
The mark [4] stands for this setting: source organism: Vaccinia virus WR.
Where [5] appears, read: source organism: Lymphocytic choriomeningitis virus (strain Armstrong).
Setting [6] is: source organism: Mammarenavirus guanaritoense.
[7] abbreviates: source organism: Mammarenavirus juninense.
The mark [8] stands for this setting: source organism: Triticum aestivum.

With SRLFEDLVWK, the Kd was 1270 nM with HLA-A*11:01 (setting [1]); no less than 70000 nM with HLA-A*33:01 (setting [1]); 661 nM in the assay with HLA-A*03:01 (setting [1]); 8590 nM in the assay with HLA-A*31:01 (setting [1]); 605 nM with HLA-A*68:01 (setting [1]).

Turning to SSSLDQTHIK, the Kd with HLA-A*11:01 (setting [2]) was 4.92 nM; in the assay with HLA-A*33:01 (setting [2]), no less than 26000 nM; in the assay with HLA-A*03:01 (setting [2]) it was 90 nM; in the assay with HLA-A*31:01 (setting [2]), 868 nM; with HLA-A*68:01 (setting [2]), 850 nM.

As to STAWLCALGK, the Kd with HLA-A*11:01 (setting [3]) is 0.35 nM; in the assay with HLA-A*33:01 (setting [3]) it was 9430 nM; with HLA-A*03:01 (setting [3]), 21.6 nM; with HLA-A*31:01 (setting [3]), 271 nM; in the assay with HLA-A*68:01 (setting [3]) it was 4.8 nM.

For the sequence STDVNKQNK, the Kd is 11.9 nM with HLA-A*11:01 (setting [4]); no less than 77700 nM in the assay with HLA-A*33:01 (setting [4]); 8970 nM with HLA-A*03:01 (setting [4]); 1180 nM in the assay with HLA-A*31:01 (setting [4]); 290 nM with HLA-A*68:01 (setting [4]).

STGNYNYKYR: the Kd turned out to be 1380 nM with HLA-A*11:01 (setting [3]); 1090 nM in the assay with HLA-A*33:01 (setting [3]); 2760 nM with HLA-A*03:01 (setting [3]); 34.7 nM in the assay with HLA-A*31:01 (setting [3]); 244 nM in the assay with HLA-A*68:01 (setting [3]).

On to STLLTWHMH, for which the Kd is 258 nM with HLA-A*11:01 (setting [5]); no less than 77700 nM with HLA-A*33:01 (setting [5]); no less than 38200 nM with HLA-A*03:01 (setting [5]); 4490 nM in the assay with HLA-A*31:01 (setting [5]); 2720 nM in the assay with HLA-A*68:01 (setting [5]).

As for TCITSMAER, the Kd in the assay with HLA-A*11:01 (setting [6]) is 17400 nM; with HLA-A*33:01 (setting [6]) it was 2630 nM; with HLA-A*03:01 (setting [6]), no less than 67000 nM; in the assay with HLA-A*31:01 (setting [6]) it was 559 nM; with HLA-A*68:01 (setting [6]) it was 243 nM.

As for TGINENYAK, the Kd is 1530 nM with HLA-A*11:01 (setting [7]); no less than 77700 nM with HLA-A*33:01 (setting [7]); no less than 78000 nM in the assay with HLA-A*03:01 (setting [7]); no less than 53400 nM in the assay with HLA-A*31:01 (setting [7]); 998 nM with HLA-A*68:01 (setting [7]).

Turning to TLDTMDDMK, the Kd with HLA-A*11:01 (setting [4]) was 466 nM; with HLA-A*33:01 (setting [4]), no less than 77700 nM; in the assay with HLA-A*03:01 (setting [4]), 11800 nM; in the assay with HLA-A*31:01 (setting [4]) it was no less than 77900 nM; with HLA-A*68:01 (setting [4]), 373 nM.

In the case of TLNEYKQLY, the Kd with HLA-A*11:01 (setting [4]) amounted to 124 nM; in the assay with HLA-A*33:01 (setting [4]), 7000 nM; in the assay with HLA-A*03:01 (setting [4]), 56.7 nM; with HLA-A*31:01 (setting [4]), 1350 nM; with HLA-A*68:01 (setting [4]) it was 1360 nM.

Consider TMKAIEKDR, for which the Kd in the assay with HLA-A*11:01 (setting [4]) was 2620 nM; with HLA-A*33:01 (setting [4]) it was 675 nM; with HLA-A*03:01 (setting [4]), no less than 25900 nM; with HLA-A*31:01 (setting [4]) it was 227 nM; with HLA-A*68:01 (setting [4]), 511 nM.

Take TSLAIKNYYR: the Kd in the assay with HLA-A*11:01 (setting [4]) stood at 0.933 nM; with HLA-A*33:01 (setting [4]), 258 nM; with HLA-A*03:01 (setting [4]), 118 nM; with HLA-A*31:01 (setting [4]), 460 nM; with HLA-A*68:01 (setting [4]), 5.8 nM.

As for TTAFFNTCK, the Kd with HLA-A*11:01 (setting [4]) worked out at 0.492 nM; with HLA-A*33:01 (setting [4]) it was 997 nM; with HLA-A*03:01 (setting [4]) it was 46.2 nM; in the assay with HLA-A*31:01 (setting [4]), 226 nM; in the assay with HLA-A*68:01 (setting [4]) it was 0.947 nM.

Turning to VFYRSGTETK, the Kd was no less than 34100 nM with HLA-A*11:01 (setting [4]); 6530 nM with HLA-A*33:01 (setting [4]); no less than 33800 nM in the assay with HLA-A*03:01 (setting [4]); 8280 nM with HLA-A*31:01 (setting [4]); no less than 20400 nM with HLA-A*68:01 (setting [4]).

VLCVKKFYK: the dissociation constant (Kd) in the assay with HLA-A*11:01 (setting [4]) was 8.82 nM; with HLA-A*33:01 (setting [4]) it was 162 nM; with HLA-A*03:01 (setting [4]) it was 25.2 nM; with HLA-A*31:01 (setting [4]) it was 1.32 nM; in the assay with HLA-A*68:01 (setting [4]), 344 nM.

As to VLGLGLSLK, the Kd in the assay with HLA-A*11:01 (setting [4]) is 25.7 nM; in the assay with HLA-A*33:01 (setting [4]), no less than 26800 nM; with HLA-A*03:01 (setting [4]), 6.73 nM; in the assay with HLA-A*31:01 (setting [4]), 1570 nM; with HLA-A*68:01 (setting [4]), 9650 nM.

As to VMCGGSLYVK, the Kd with HLA-A*11:01 (setting [3]) is 46.6 nM; in the assay with HLA-A*33:01 (setting [3]), 16300 nM; with HLA-A*03:01 (setting [3]) it was 58.4 nM; with HLA-A*31:01 (setting [3]), 648 nM; with HLA-A*68:01 (setting [3]) it was 8480 nM.

Consider VTSLAIKNY, for which the Kd with HLA-A*11:01 (setting [4]) is 322 nM; with HLA-A*33:01 (setting [4]), no less than 77700 nM; with HLA-A*03:01 (setting [4]) it was no less than 25100 nM; in the assay with HLA-A*31:01 (setting [4]) it was no less than 34800 nM; with HLA-A*68:01 (setting [4]), 12500 nM.

Regarding VVLQQHNIVH, the Kd in the assay with HLA-A*11:01 (setting [8]) is 4630 nM; with HLA-A*33:01 (setting [8]), no less than 28300 nM; in the assay with HLA-A*03:01 (setting [8]), 2020 nM; with HLA-A*31:01 (setting [8]), 5200 nM; with HLA-A*68:01 (setting [8]), no less than 29600 nM.
